Experimental data from patent US7067619 (LA JOLLA CANCER RESEARCH FOUNDATION, dated 2006).

Legend:
[1] = biological target: αvβ5 integrin isolated from human placental extract (human, UniProt P06756 31-1048; P18084 24-799); test: phage panning on coated integrin
Method: (§1) In the first panning, the integrins were coated at 5 µg per well, and the library pool was incubated for 4 hours at 25° C. in TBS buffer containing 1% bovine serum albumin and 1 mM MnCl_2 (α_5β_1, α_vβ_3) 1 mM MgCl_2 ($\alphaIIb\beta_3$) or 1 mM CaCl_2 (α_vβ_5).

[2] = biological target: T1, α5β1 integrin isolated from human placental extract (human, UniProt P08648 42-1049; P05556 21-798); test: phage panning on coated integrin
T1 construct: coated on plastic wells or captured by anti-α5 antibody; also called fibronectin receptor
T1 sequence (P08648 42-1049, chain 1 of 2): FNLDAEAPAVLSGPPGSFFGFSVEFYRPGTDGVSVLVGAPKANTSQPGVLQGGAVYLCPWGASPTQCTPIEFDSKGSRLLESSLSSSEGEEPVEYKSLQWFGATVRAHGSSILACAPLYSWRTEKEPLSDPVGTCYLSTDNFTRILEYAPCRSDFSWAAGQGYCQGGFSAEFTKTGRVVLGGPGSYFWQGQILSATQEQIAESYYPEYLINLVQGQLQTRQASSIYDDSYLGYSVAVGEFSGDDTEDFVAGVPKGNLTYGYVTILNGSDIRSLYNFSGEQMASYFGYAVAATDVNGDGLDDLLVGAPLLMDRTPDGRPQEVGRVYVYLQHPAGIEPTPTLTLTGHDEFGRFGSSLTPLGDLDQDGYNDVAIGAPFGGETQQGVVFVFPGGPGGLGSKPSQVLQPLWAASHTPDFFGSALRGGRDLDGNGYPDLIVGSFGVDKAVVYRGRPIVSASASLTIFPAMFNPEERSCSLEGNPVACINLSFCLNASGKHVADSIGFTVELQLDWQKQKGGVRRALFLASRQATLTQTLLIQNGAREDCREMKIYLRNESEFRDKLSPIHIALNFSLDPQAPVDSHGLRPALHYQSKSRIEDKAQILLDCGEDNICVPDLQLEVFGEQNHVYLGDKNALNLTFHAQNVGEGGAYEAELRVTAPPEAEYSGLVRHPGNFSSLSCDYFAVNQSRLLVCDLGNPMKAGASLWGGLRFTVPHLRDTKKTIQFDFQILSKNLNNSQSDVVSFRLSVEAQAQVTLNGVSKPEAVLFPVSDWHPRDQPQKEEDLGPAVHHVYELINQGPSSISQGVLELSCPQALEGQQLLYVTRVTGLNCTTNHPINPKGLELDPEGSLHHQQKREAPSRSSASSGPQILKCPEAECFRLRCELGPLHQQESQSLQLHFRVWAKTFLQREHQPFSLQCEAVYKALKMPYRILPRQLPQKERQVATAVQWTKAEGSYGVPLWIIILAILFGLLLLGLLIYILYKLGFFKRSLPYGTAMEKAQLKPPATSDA
T1 sequence (P05556 21-798, chain 2 of 2): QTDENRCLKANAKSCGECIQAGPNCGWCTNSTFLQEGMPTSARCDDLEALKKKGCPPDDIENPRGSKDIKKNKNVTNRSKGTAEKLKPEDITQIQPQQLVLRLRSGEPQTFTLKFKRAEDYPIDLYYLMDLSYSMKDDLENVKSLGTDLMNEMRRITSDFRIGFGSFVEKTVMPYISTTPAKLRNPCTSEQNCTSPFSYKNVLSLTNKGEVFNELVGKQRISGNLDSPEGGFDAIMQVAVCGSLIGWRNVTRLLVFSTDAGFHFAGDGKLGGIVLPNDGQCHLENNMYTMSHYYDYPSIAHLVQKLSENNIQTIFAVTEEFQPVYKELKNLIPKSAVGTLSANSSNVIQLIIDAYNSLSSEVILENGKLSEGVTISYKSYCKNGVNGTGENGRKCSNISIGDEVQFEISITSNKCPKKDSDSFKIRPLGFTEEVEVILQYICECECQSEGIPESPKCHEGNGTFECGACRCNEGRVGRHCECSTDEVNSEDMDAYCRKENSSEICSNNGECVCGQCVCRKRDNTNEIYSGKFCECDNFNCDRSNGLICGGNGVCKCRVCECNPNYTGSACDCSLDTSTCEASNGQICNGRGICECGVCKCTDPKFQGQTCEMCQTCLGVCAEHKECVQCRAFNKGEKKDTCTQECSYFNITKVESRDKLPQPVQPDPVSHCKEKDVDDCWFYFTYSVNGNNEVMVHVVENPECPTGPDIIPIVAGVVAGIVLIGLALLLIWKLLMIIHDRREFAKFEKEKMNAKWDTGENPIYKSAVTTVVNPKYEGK
Method: as §1

Sequence of αvβ5 integrin isolated from human placental extract (P06756 31-1048, chain 1 of 2): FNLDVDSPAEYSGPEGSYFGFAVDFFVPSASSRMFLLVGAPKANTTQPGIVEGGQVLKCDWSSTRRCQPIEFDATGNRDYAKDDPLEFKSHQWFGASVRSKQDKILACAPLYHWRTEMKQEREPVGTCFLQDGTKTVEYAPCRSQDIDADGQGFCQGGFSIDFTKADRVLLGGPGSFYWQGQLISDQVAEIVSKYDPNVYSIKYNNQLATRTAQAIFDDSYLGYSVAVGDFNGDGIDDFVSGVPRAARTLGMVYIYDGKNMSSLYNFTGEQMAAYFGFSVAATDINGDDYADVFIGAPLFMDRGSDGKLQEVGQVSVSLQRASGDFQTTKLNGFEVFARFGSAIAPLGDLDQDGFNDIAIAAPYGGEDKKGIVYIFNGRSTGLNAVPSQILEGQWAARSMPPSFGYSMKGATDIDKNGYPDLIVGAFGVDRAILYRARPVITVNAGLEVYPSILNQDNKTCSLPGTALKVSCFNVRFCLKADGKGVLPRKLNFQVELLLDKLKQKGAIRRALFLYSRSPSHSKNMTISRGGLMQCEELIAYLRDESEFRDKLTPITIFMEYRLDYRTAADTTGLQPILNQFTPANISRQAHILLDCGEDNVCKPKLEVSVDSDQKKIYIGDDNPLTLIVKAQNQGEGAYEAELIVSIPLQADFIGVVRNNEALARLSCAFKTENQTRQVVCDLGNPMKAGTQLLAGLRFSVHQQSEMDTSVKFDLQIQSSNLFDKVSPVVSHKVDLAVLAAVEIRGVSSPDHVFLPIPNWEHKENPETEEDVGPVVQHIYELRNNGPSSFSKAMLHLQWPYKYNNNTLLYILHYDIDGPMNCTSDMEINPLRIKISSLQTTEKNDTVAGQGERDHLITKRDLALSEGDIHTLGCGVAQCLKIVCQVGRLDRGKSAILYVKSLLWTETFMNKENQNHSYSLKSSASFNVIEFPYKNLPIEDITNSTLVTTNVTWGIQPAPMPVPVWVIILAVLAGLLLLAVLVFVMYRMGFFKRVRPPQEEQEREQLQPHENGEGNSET
Sequence of αvβ5 integrin isolated from human placental extract (P18084 24-799, chain 2 of 2): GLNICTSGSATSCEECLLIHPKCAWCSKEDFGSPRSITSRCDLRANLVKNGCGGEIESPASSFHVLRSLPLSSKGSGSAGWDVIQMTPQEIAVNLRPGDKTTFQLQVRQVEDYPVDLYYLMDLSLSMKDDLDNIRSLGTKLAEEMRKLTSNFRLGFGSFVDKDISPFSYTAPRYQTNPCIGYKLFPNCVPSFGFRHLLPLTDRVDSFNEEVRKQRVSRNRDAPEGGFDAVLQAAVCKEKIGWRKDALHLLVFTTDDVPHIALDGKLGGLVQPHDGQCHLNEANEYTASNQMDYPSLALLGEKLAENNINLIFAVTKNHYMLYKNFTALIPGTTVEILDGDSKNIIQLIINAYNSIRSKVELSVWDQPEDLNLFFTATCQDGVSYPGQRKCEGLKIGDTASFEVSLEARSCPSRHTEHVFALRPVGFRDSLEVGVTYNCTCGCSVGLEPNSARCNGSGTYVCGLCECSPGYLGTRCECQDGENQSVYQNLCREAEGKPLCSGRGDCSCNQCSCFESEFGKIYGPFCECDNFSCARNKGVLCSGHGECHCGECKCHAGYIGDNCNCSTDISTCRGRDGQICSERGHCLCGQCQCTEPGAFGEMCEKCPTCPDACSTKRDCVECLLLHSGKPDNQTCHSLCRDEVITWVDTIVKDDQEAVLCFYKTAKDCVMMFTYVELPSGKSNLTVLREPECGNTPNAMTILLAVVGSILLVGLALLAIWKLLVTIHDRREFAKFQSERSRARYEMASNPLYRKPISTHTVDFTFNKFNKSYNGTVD

Binder | binding result [1] | binding result [2]
CYRGDADFWC (on fuse 5 phage, fused to pIII) [CYRGDADFWC phage] | binds | 
CVTRGDSFSC (on fuse 5 phage, fused to pIII) [CVTRGDSFSC phage] | binds | 
CEAKFQLHWV (on fuse 5 phage, fused to pIII) [CEAKFQLHWV phage] | binds | 
CIRQRIYPWC (on fuse 5 phage, fused to pIII) [CIRQRIYPWC phage] | binds | 
CPDKRGDTYC (on fuse 5 phage, fused to pIII) [CPDKRGDTYC phage] | binds | 
CIRRGDTFGC (on fuse 5 phage, fused to pIII) [CIRRGDTFGC phage] | binds | 
CGQRSSARAS (on fuse 5 phage, fused to pIII) [CGQRSSARAS phage] | binds | 
CRGDTPGFLC (on fuse 5 phage, fused to pIII) [CRGDTPGFLC phage] | binds | 
CVSRGDTPKC (on fuse 5 phage, fused to pIII) [CVSRGDTPKC phage] | binds | 
CQGRGDTFYC (on fuse 5 phage, fused to pIII) [CQGRGDTFYC phage] | binds | 
CQVRGDQFAC (on fuse 5 phage, fused to pIII) [CQVRGDQFAC phage] | binds | 
CTQRGDNFFC (on fuse 5 phage, fused to pIII) [CTQRGDNFFC phage] | binds | 
CAPRGDHFAC (on fuse 5 phage, fused to pIII) [CAPRGDHFAC phage] | binds | 
CSQKRGDTWC (on fuse 5 phage, fused to pIII) [CSQKRGDTWC phage] | binds | 
CIEIQHGKAC (on fuse 5 phage, fused to pIII) [CIEIQHGKAC phage] | binds | 
CTRKRAVGAA (on fuse 5 phage, fused to pIII) [CTRKRAVGAA phage] | binds | 
CGPRERFLSC (on fuse 5 phage, fused to pIII) [CGPRERFLSC phage] | binds | 
CRKQVMACTA (on fuse 5 phage, fused to pIII) [CRKQVMACTA phage] | binds | 
CGRRGDVPRC (on fuse 5 phage, fused to pIII) [CGRRGDVPRC phage] | binds | 
CGSPLKSIKC (on fuse 5 phage, fused to pIII) [CGSPLKSIKC phage] | binds | 
CDSVLRVFC (on fuse 5 phage, fused to pIII) [CDSVLRVFC phage] | binds | 
CRGDGAWC (on fuse 5 phage, fused to pIII) [CRGDGAWC phage] |  | binds
CRGDAAHC (on fuse 5 phage, fused to pIII) [CRGDAAHC phage] |  | binds
CAHRGDTPQC (on fuse 5 phage, fused to pIII) [CAHRGDTPQC phage] | binds | 
CPRRGDTFSC (on fuse 5 phage, fused to pIII) [CPRRGDTFSC phage] | binds | 
CVGKELHKRV (on fuse 5 phage, fused to pIII) [CVGKELHKRV phage] | binds | 
CRGDVPAVGC (on fuse 5 phage, fused to pIII) [CRGDVPAVGC phage] | binds | 
CRGDLPRAWC (on fuse 5 phage, fused to pIII) [CRGDLPRAWC phage] | binds | 
CQSRGDDFSC (on fuse 5 phage, fused to pIII) [CQSRGDDFSC phage] | binds | 
